Changes are numbered by the printed parent chain.
T1: TPX2 construct 1 to 260 (Xenopus laevis, UniProt Q6NUF4 1-260)
T1 construct: TPX2, Xenopus laevis, amino acids 1-260; also called TPX2 1 to 260; source: recombinant, purified to >95% purity
T1 sequence (looked up): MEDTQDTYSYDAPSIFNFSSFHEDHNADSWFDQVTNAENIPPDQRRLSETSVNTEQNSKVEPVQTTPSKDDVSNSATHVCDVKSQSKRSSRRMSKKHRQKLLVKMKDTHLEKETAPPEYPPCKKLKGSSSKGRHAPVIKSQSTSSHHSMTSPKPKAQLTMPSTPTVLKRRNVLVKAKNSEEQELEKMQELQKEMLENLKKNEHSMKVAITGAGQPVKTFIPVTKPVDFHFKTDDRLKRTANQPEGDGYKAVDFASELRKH

T2: TPX2 1 to 178 with the KKLK motif mutated (K123A, K124A, K126A) (Xenopus laevis, UniProt Q6NUF4 1-178, K123A | K124A | K126A)
T2 construct: TPX2, Xenopus laevis, amino acids 1-178 with the lysines of KKLK (123-126) mutated to alanines; also called TPX2 1 to 178 (K123A, K124A, K126A); source: recombinant, purified to >95% purity
T2 sequence (looked up): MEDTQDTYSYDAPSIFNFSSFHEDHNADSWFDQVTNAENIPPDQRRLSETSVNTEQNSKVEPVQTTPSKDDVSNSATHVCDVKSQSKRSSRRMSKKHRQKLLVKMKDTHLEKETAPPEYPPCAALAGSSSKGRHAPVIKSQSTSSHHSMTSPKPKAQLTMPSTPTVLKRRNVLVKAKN

T3: TPX2 construct 1 to 178 (Xenopus laevis, UniProt Q6NUF4 1-178)
T3 construct: TPX2, Xenopus laevis, amino acids 1-178; also called wild-type-1-178 TPX2 construct; TPX2 1 to 178; source: recombinant, purified to >95% purity
T3 sequence (looked up): T2 sequence (looked up) with A123K, A124K, A126K

B1: TPX2 C terminus (a.a. 480-716) (domain or fragment, Xenopus laevis, UniProt Q6NUF4 480-716, looked up)
chain: IKATRMPHYGVPFKPKLVEQRQVDVCPFSFCDRDKERQLQKEKRLDELRKDEVPKFKAQPLPQFDNIRLPEKKVKMPTQQEPFDLEIEKRGASKLQRWQQQIQEELKQQKEMVVFKARPNTVVHQEPFVPKKENRSLTESLSGSIVQEGFELATAKRAKERQEFDKCLAETEAQKSLLEEEIRKRREEEEKEEISQLRQELVHKAKPIRKYRAVEVKASDVPLTVPRSPNFSDRFKC
notes: TPX2, Xenopus laevis, amino acids 480-716 (ordered C-terminal region); also called TPX2's C terminus; source: recombinant, purified to >95% purity
B2: Targeting Protein for XKlp2 (TPX2), full length, wild type (natural protein, Xenopus laevis, UniProt Q6NUF4 1-716, looked up)
chain: MEDTQDTYSYDAPSIFNFSSFHEDHNADSWFDQVTNAENIPPDQRRLSETSVNTEQNSKVEPVQTTPSKDDVSNSATHVCDVKSQSKRSSRRMSKKHRQKLLVKMKDTHLEKETAPPEYPPCKKLKGSSSKGRHAPVIKSQSTSSHHSMTSPKPKAQLTMPSTPTVLKRRNVLVKAKNSEEQELEKMQELQKEMLENLKKNEHSMKVAITGAGQPVKTFIPVTKPVDFHFKTDDRLKRTANQPEGDGYKAVDFASELRKHPPSPVQVTKGGHTVPKPFNLSKGKRKHEEASDYVSTAEQVIAFYKRTPARYHLRSRQREMEGPSPVKMIKTKLTNPKTPLLQTKGRHRPVTCKSAAELEAEELEMINQYKFKAQELDTRILEGGPVLLKKPLVKEPTKAIGFDLEIEKRIQQREKKEEIEEETFTFHSRPCPSKMLTDVVGVPLKKLLPVTVPQSPAFALKNRVRIPAQEEKQEEMVPVIKATRMPHYGVPFKPKLVEQRQVDVCPFSFCDRDKERQLQKEKRLDELRKDEVPKFKAQPLPQFDNIRLPEKKVKMPTQQEPFDLEIEKRGASKLQRWQQQIQEELKQQKEMVVFKARPNTVVHQEPFVPKKENRSLTESLSGSIVQEGFELATAKRAKERQEFDKCLAETEAQKSLLEEEIRKRREEEEKEEISQLRQELVHKAKPIRKYRAVEVKASDVPLTVPRSPNFSDRFKC
notes: TPX2, Xenopus laevis, full length; 1 to 716; Named GFP-TPX2 for SEC-MALS; also called GFP-TPX2; wt-TPX2; source: recombinant, purified to >95% purity
B3: TPX2 N terminus (a.a. 1-480) (domain or fragment, Xenopus laevis, UniProt Q6NUF4 1-480, looked up)
chain: MEDTQDTYSYDAPSIFNFSSFHEDHNADSWFDQVTNAENIPPDQRRLSETSVNTEQNSKVEPVQTTPSKDDVSNSATHVCDVKSQSKRSSRRMSKKHRQKLLVKMKDTHLEKETAPPEYPPCKKLKGSSSKGRHAPVIKSQSTSSHHSMTSPKPKAQLTMPSTPTVLKRRNVLVKAKNSEEQELEKMQELQKEMLENLKKNEHSMKVAITGAGQPVKTFIPVTKPVDFHFKTDDRLKRTANQPEGDGYKAVDFASELRKHPPSPVQVTKGGHTVPKPFNLSKGKRKHEEASDYVSTAEQVIAFYKRTPARYHLRSRQREMEGPSPVKMIKTKLTNPKTPLLQTKGRHRPVTCKSAAELEAEELEMINQYKFKAQELDTRILEGGPVLLKKPLVKEPTKAIGFDLEIEKRIQQREKKEEIEEETFTFHSRPCPSKMLTDVVGVPLKKLLPVTVPQSPAFALKNRVRIPAQEEKQEEMVPVI
notes: TPX2, Xenopus laevis, amino acids 1-480 (disordered N-terminal region); also called N-terminal region (a.a. 1-480) of TPX2; source: recombinant, purified to >95% purity
B4: importin-α/β heterodimer (complex)
chain 1: not shown
chain 2: MELVTILEKTVSPDRNELEAAQKFLEQAAVENLPTFVVELSKVLANPANSQVARVAAGLQIKNPLTSRDPDVKAQYQQRWLAIDASARGEIKTYVLRTLGTESYRPSSASQCVAGIACAEITVNQWPQLIPQLVANVTDPNSTERMKESTLEAIGYICQDIDPEQLQHKSNEILTAIIQGMRKEEPSNNVRLAATNALLNSLEFTKANFDKESERHYIMQVVCEATQCPDTRVRVAALQNLVKIMSLYYQYMETYMGPALFAITVEAMKNEIDEVALQGIEFWSNVCDEEMDLAIEASEAAEQGRPPEHTSKFYAKGALQYLVPILTQTLTKQDENDDDDDWNPCKAAGVCLMLLATCCEDDIVPHVLPFIKEHIKNPDWRYRDAAVMAFGCILEGPESCQLKPLVIQAMPTLIELMKDPSVVVRDTTAWTVGRICELLPEAAINDVYLAPLLQCLIEGLGAEPRVASNVCWAFSSLAEAAYEAADVADDQEEPSSYCLSSSFEVIVQKLLETTDRPDGHQNNLRSAAYEALMEIVKNSAKDCYPAVQKTTLVIMERLQQVLQVESHIQSTSDRIQFNDLQSLLCATLQNVLRKVQHQDALQISDVVMASLLRMFQSTAGSGGVQEDALMAVSTLVEVLGAEFLKYMEAFKPFLTIGLKNYAEYQVCLAAVGLVGDLCRALQSNILPFCDEMMQFLLENLGNENVHRSVKPQILSVFGDVALAIGGEFKKYLDVVLNTLQQASQAQVDKSDYDMVDYLNELREGCIEAYTGIIQGLKGDQENVHPDVMLVQPRVEFILSFIDHIAGDEDHTDSVVACGAGLIGDLCTAFGKDVLKLVEARPMIHELLTEGRRSKTNKTKTLATWATKELRKLKNQA
B5: importin-β (natural protein, Xenopus laevis, UniProt P52297 1-876, looked up)
chain: B4 chain 2
notes: importin-β, Xenopus laevis; Construct in the Supplemental information; The UniProt entry recalled may be a fragment; also called importin-β alone; source: recombinant, purified to >95% purity
B6: importin-αΔIBB (truncated importin-α without the importin-β-binding domain) (domain or fragment)
chain: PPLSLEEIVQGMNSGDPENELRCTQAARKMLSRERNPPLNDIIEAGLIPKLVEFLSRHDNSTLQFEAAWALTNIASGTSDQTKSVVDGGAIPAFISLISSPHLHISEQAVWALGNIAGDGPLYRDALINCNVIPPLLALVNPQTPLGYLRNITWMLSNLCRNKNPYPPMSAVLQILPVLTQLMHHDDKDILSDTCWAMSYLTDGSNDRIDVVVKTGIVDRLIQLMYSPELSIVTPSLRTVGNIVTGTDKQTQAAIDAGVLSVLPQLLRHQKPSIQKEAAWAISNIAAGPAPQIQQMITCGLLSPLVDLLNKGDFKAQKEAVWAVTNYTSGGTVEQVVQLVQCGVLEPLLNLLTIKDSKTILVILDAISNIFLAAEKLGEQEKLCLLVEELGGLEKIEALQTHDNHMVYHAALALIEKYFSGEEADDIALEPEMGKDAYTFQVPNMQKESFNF

Assays:
importin-β = biological target: B5; test: BLI; Octet (ForteBio); TPX2 attached to sensors, importin concentration varied; normalized amplitudes; apparent Kd; details: both partners purified
importin-α/β heterodimer = biological target: B4; test: as above; details: both partners purified
[1] = biological target: B2; test: SEC-MALS; Superdex-200-increase 3.2/300 in line with a Wyatt light scattering machine; GFP-TPX2 alone, importin-α/β alone and TPX2 with importin-α/β (TPX2 printed as 5 M, importin-α/β 15 μM); details: both partners purified
[2] = biological target: B2; test: cell-based or functional assay
GST-importin-α = GST-importin-α (Xenopus laevis); test: SEC-MALS; Superdex-200-increase 3.2/300 in line with a Wyatt light scattering machine; GFP-TPX2 alone, importin-α/β alone and TPX2 with importin-α/β (TPX2 printed as 5 M, importin-α/β 15 μM); details: both partners purified
GST-importin-α (Xenopus laevis), sequence (chain, as listed by the source): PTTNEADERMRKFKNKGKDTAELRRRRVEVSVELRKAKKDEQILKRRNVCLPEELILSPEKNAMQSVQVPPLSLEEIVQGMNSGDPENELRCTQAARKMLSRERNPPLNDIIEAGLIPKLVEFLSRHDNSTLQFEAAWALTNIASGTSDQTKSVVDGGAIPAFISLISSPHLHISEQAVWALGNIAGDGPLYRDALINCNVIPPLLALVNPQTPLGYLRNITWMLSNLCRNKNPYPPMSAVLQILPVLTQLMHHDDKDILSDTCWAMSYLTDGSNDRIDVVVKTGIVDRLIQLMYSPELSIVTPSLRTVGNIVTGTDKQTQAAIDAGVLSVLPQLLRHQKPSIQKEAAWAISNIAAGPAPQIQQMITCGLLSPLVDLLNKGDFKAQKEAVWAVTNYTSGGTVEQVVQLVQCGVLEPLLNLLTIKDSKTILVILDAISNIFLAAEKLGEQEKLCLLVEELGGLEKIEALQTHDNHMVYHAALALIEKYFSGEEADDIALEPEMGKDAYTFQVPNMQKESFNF

[3] = biological target: the molecule itself; test: SEC-MALS; Superdex-200-increase 3.2/300; importin-αΔIBB alone and TPX2 (2 μM) with importin-αΔIBB (20 μM)
[4] = biological target: B2; test: as above; details: both partners purified
TPX2 construct 1 to 260 = biological target: T1, TPX2 construct 1 to 260; test: BLI; Octet (ForteBio); TPX2 attached to sensors, importin concentration varied; normalized amplitudes; apparent Kd; details: both partners purified
[5] = biological target: triple-mutant TPX2 (3M-TPX2) (Xenopus laevis, UniProt Q6NUF4 1-716, K123A | K124A | K126A | K284A | R285A | K327A | K330A); test: as above; details: both partners purified
[6] = biological target: T2, TPX2 1 to 178 with the KKLK motif …; test: as above; details: both partners purified
[7] = biological target: B2; test: as above; details: both partners purified
TPX2 construct 1 to 178 = biological target: T3, TPX2 construct 1 to 178; test: as above; details: both partners purified

Binder: B1
- Kd (importin-β): > 4000 nM

Binder: B2
- Kd (importin-β): 530 ± 75 nM
- Kd (importin-α/β heterodimer): 75 ± 15 nM

Binder: B3
- Kd (importin-β): 512 ± 70 nM

Binder: B4
- stoichiometry N [1]: 1 TPX2:importin-α:importin-β
- inhibition of TPX2 condensation (fluorescence microscopy; TPX2 1 μM, importin-α/β in molar excess) [2]: 2 fold excess

Binder: B5
- stoichiometry N (GST-importin-α): 1 importin-α:importin-β
- TPX2-mediated branching microtubule nucleation in Xenopus egg cytosol (TIRF microscopy; TPX2 150 nM, importin-β 2.5x to 20x) [2]: 10 fold molar excess

Binder: B6
- stoichiometry N [3]: 2
- stoichiometry N [4]: > 1 importin-αΔIBB:TPX2
- Kd (TPX2 construct 1 to 260): 20 ± 4 nM
- Kd [5]: 410 ± 70 nM
- fold loss of binding against the wild-type 1-178 construct [6]: 10 fold
- Kd [7]: 61 ± 10 nM
- Kd (TPX2 construct 1 to 178): 15 ± 3 nM
- inhibition of TPX2 condensation (fluorescence microscopy; TPX2 1 μM, importin-αΔIBB 1x to 20x; enhancement at lower concentrations) [2]: ~20 fold excess

From publication PMC8390506, “Interaction of spindle assembly factor TPX2 with importins-α/β inhibits protein phase separation” (The Journal of Biological Chemistry, 2021)
